In PMC3333882 (Nucleic Acids Research, 2011):

Target: MEF2C-Flag (myocyte enhancer factor 2C with Flag tag) (UniProt Q8CFN5 1-474)
Test: co-IP

Chain of MEF2C-Flag (myocyte enhancer factor 2C with Flag tag) (Q8CFN5 whole entry): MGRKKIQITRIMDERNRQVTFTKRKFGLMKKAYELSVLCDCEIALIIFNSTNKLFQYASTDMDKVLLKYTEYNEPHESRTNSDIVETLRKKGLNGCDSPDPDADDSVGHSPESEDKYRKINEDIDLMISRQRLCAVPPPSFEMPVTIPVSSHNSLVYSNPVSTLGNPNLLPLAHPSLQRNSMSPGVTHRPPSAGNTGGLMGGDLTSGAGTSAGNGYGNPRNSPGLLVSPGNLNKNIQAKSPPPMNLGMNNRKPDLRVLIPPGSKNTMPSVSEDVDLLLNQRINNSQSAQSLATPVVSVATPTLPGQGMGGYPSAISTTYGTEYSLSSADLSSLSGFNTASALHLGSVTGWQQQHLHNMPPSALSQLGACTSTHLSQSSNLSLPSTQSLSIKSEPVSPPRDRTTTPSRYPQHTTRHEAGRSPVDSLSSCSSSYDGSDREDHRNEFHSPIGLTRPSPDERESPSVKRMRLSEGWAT

B1: Gli2 (glioma-associated factor 2) (natural protein, mouse, UniProt Q0VGV1 1-1540, looked up)
chain: METSAPAPALEKKEAKSGLLEDSSFPDPGKKACPLAVAAAVAAHGVPQQLLPAFHAPLPIDMRHQEGRYHYDPHSVHSVHGPPTLSGSPFISDISLIRLSPHPAGPGESPFSAHHPYVNPHMEHYLRSVHSSPTLSMISAARGLSPADVAHEHLKERGLFSLAAPGTNPSDYYHQMTLMASHPTPYGDLLMQSGGAASAPHLHDYLNPVDASRFSSPRVTPRLSRKRALSISPLSDASLDLQRMIRTSPNSLVAYINNSRSSSAASGSYGHLSAGALSPAFTFPHPINPVAYQQILSQQRGLGSAFGHTPPLIQPSPTFLAQQPMTLTSISTMPTQLSSSSSNCLNDANQNKQNSESAVSSTVNPITIHKRSKVKTEAEGLRPASPLGLTQEQLADLKEDLDRDDCKQEAEGVIYETNCHWADCTKEYDTQEQLVHHINNEHIHGEKKEFVCRWQACTREQKPFKAQYMLVVHMRRHTGEKPHKCTFEGCSKAYSRLENLKTHLRSHTGEKPYVCEHEGCNKAFSNASDRAKHQNRTHSNEKPYICKIPGCTKRYTDPSSLRKHVKTVHGPDAHVTKKQRNDVHVRAPLLKENGDNEASAEPGGRGPEESVEASSTSHTVEDCLHIKAIKTESSGLCQSSPGAQSSCSSEPSPLGSAPNNDSGMEMPGTGPGSLGDLTALADTCPGADTSALAAPSTGGLQLRKHMSTVHRFEQLKREKLKSLKDSCSWAGPAPHTRNTKLPPLPVNGSVLENFNNTGGGGPAGLLPSQRLPELTEVTMLSQLQERRDSSTSTMSSAYTVSRRSSGISPYFSSRRSSEASPLGGLRPHNASSADSYDPISTDASRRSSEASQCSGGGPGLLNLTPAQQYNLRAKYAAATGGPPPTPLPGLDRVSLRTRLALLDAPERALPGACPHPLGPRRGSDGPTYSHGHGHGYAGAAPAFPHEGPNSSTRRASDPVRRPDPLILPRVQRFHSTHNMNPGSLPPCADRRGLHVQSHPSVDSNLTRNAYSPRPPSINENVVMEAVAAGVDGPGLECDLGLVEDELVLPDDVVQYIKAHTGGTLDDGIRQGYPTEGTGFPENSKLPSPGLQGHRRLAAADSNMGPSAPGLGGCQLSYSPSSNLNKSNMPVQWNEVSSGTVDALPTQVKPPPFPHSNLAVVQQKPAFGQYPGYNPQSVQSSSGGLDSTQPHLQLRGAPSASRGSYTQQPRQPAAGSQCLGMSAAMSPQASYSQAHPQLSPNIVSGSLNQFSPSCSNMAAKPSHLGLPQQMEVVPNATIMNGHQREHGVPNSSLAAVSQPHPVLSYPQQDSYQQGSNLLSSHQPGFMESQQNAGFGLMQPRPPLEPNTASRHRGVRSGQQQLYARTTGQAMVTSANQETAEAMPKGPAGTMVSLAPQPSQDTGRAQDQNTLYYYGQIHMYEQNGGCPAVQPQPPQPQACSDSIQPEPLPSPGVNQVSSTVDSQLLEPPQIDFDAIMDDGDHSSLFSGALSPTLLHNLSQNSSRLTTPRNSLTLPSIPAGISNMAVGDMSSMLTSLAEESKFF
- fold amount co-immunoprecipitated against the Flag-vector control: 4 fold
